Experimental data: PMC3214078, “The PHD Finger of Human UHRF1 Reveals a New Subgroup of Unmethylated Histone H3 Tail Readers” (PLoS ONE, 2011)
Where no end group is shown, it is not given here. Me3 = trimethyl-lysine

Key:
Details in all cases: both partners purified
[1] = molecular target: T1, huUHRF1-PHD(296–367), PHD finger of human UHRF1 with the additional N-terminal zinc finger (human, UniProt Q96T88 296-367); assay: crystal structure; huUHRF1-PHD(296–367) at 606 µM with a 10-fold excess of H3 peptide (1–8); vapor diffusion at 17°C, 0.1 M Tris pH 8.5, 0.2 M MgCl2, 30% PEG 4000; 1.95 Å
T1 construct: Vector pHGGWA (Gateway); also called ICBP90 PHD finger
T1 sequence (looked up): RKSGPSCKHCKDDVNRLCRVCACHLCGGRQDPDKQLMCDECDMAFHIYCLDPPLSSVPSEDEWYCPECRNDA

[2] = molecular target: T1, huUHRF1-PHD(296–367), PHD finger of …; assay: ITC; 20°C; histone peptides (1–12Y, 1.5–2 mM) injected into huUHRF1-PHD (0.12–0.18 mM); 20 mM Tris pH 7, 150 mM NaCl, 0.5 mM TCEP, 25 µM ZnCl2, 0.1 mM PMSF
[3] = molecular target: T2, huUHRF1-PHD(296–367) D334A (human, UniProt Q96T88 296-367, D334A); assay: as above
T2 sequence (looked up): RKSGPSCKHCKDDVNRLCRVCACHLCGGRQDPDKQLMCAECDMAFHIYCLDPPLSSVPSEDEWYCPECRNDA

[4] = molecular target: T3, huUHRF1-PHD(296–367) D337A (human, UniProt Q96T88 296-367, D337A); assay: as above
T3 sequence (looked up): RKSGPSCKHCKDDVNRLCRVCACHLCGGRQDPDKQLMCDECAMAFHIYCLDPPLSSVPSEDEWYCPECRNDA

B1: short histone H3 peptide including residues 1–8, unmodified (peptide, UniProt P68431 2-9, looked up)
peptide: ARTKQTAR
notes: histone H3 N-terminal tail, residues 1-8 (five of the eight seen in the map); also called unmodified histone H3 peptide; histone H3 tail
binding result [1]: binds

B2: histone H3 peptide (1–12Y), unmodified (peptide)
peptide: ARTKQTARKSTGY
notes: histone H3 N-terminal tail, residues 1-12; tyrosine after residue 12, read from the label '1–12Y'; also called unmodified H3; H3K4me0
Kd [2]: 7.9 µM | dH [2]: -17.6 kcal/mol | Kd [3]: > 500 µM | Kd [4]: ~70 µM

B3: histone H3 peptide (1–12Y) with K4 mutated to alanine (peptide)
peptide: ARTAQTARKSTGY
notes: histone H3 N-terminal tail, residues 1-12 with K4A; tyrosine after residue 12, read from the label '1–12Y'; also called H3K4A
Kd [2]: 17 µM | dH [2]: -14.1 kcal/mol

B4: histone H3 peptide (1–12Y) with trimethylated K4 (peptide)
peptide: ARTK(Me3)QTARKSTGY
notes: histone H3 N-terminal tail, residues 1-12; tyrosine after residue 12, read from the label '1–12Y'; also called H3K4me3
Kd [2]: 25.9 µM | dH [2]: -11.6 kcal/mol
